Measured values published in the supplement of paper PMC9170038.

System: MS2 coat protein
Assay: apparent KD of MS2 coat protein; designed switch direction (-1 OFF switch, 1 ON switch): -1; higher = weaker reporter binding
Procedure, shortened: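 SNAP-549-labelled MS2 coat protein was titrated, doubling from 0.7 or 1.5 nM to 3 µM, over designed RNA switches transcribed on Illumina chips by stalled E. coli RNA polymerase. Runs were done without input, with 200 uM small-molecule ligand, or with an oligonucleotide input. Apparent KD is the per-design median over clusters of curve-fitted normalised fluorescence.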

[1] = input ligand: microRNA oligo, concentration not stated
[2] = Eterna round: R95, input ligand: FMN 200 uM
[3] = Eterna round: R95, input ligand: microRNA oligo, concentration not stated
[4] = Eterna round: R95, input ligand: none

| Sequence | apparent KD of MS2 coat protein (input ligand: FMN 200 uM) | apparent KD of MS2 coat protein [1] | apparent KD of MS2 coat protein (input ligand: none) | apparent KD of MS2 coat protein [2] | apparent KD of MS2 coat protein [3] | apparent KD of MS2 coat protein [4] |
| --- | --- | --- | --- | --- | --- | --- |
| GUCAGCUCGUGAGGAUAUAUAUACAUGAGGAUCACCCAUGUAAGAUCAGGCUUCGGCCAAUGUAUAUAGAAGGCACGAGCUGAU [ENG2/11-A2] (Eterna round: R96, puzzle: Exclusion NG 2) | 847 nM | 695 nM | 1120 nM | – | – | – |
| AAGUACCGUCACGAUAGUGAUGGUACAACAAGCGAAUGUACAUGAGGAUCACCCAUGUCCUCUUUUGCUCGUCUUAU [Sensor 3 - 97] (puzzle: Sensor v3, turn-off variant 2) | – | – | – | 130 nM | 31.9 nM | 155 nM |
| GCCGUUAAAGGAUAUACAUGAGGAUCACCCAUGUCGGUAUAAAAUUUACCGCCUCCCUGUAGAAGGUUAAGGCA [Xebiatorer] (puzzle: Exclusion 3) | – | – | – | – | 16.1 nM | – |
| CUUUUGUGAGGAUAUCAGUAGUAAAGAAAUAAAAUUACUACUGAGAAGGCACAUGAGGAUCACCCAUGUUCCUC [Mat - Exclusion 4 - Mod of Salish - D62] (puzzle: Exclusion 4) | – | – | – | – | 36.2 nM | – |
| UUUUAACAUGAGGAUCACCCAUGUCAGGAUAUGGUUUUUUUUUUUUUUUUUUUUUUUUCCAGAAGGGACAUUUU [My solution] (puzzle: Exclusion 1) | – | – | – | 42.5 nM | 5.77 nM | 3.88 nM |
| GGUAAAGGCCGAGGAUAUCGGAAAGGAAGUGUACGAGAAGGCGGCAAAAGAACAUGAGGAUCACCCAUGUGGGCCGAUCUUCCG [16th something] (Eterna round: R96, puzzle: Exclusion NG 1) | 23.6 nM | 16.8 nM | 18 nM | – | – | – |
| CAGUACUGAGGAUAUACAUGAGGAUCACCCAUGUAAUAAUCGUAGGAAACUACGAUAUGUAGAAGGCAGUACUG [Eli x3 4.04] (Eterna round: R97, puzzle: Exclusion 3) | 16 nM | – | 13.1 nM | – | – | – |
| CCGCAAAAGCAGGAUAUCGUAUCGGAAACGAUACGAGAAGGGUUUACAUGAGGAUCACCCAUGUUCCUUAGCGG [Mat - Exclusion 6 - Eli Mod - D101] (puzzle: Exclusion 6) | – | – | – | – | 28.7 nM | – |
| CCUCAACAGUAGGAUAUCAUCAAACUAUUGUGAUGAGAAGGACUGACAUGAGGAUCACCCAUGUUAACGUGAUG [Mod of Brourd - Jieux - Exclusion 6] (Eterna round: R97, puzzle: Exclusion 6) | 176 nM | – | 35.8 nM | – | – | – |
| UUCCUACAUGAGGAUCACCCAUGUGAGGAUAUGCAUCGUAUUAUUCUCGUAUGUAGUAGCAGAAGGCGCAUUGG [Starry Exclusion 1.1] (puzzle: Exclusion 1) | – | – | – | 121 nM | 36.9 nM | 31.2 nM |
| CCGGGUUAUGUUAGGAUAUGUAGGCCGCAACCGGAACAGAAGGGACAUGAGGAUCACCCAUGUGAUAUUCCCGG [Onxexe] (puzzle: Brourd's mod of Exclusion 4) | – | – | – | – | 17.5 nM | – |
| UUUAUAUAUGAAGGAUAUACUUAACAUGAGGAUCACCCAUGUGGUGUUGUGAGUGAGUGAGUUUAGUAGAAGGUCAAGUAUUUU [JMF's solution 49] (Eterna round: R96, puzzle: Exclusion NG 2) | 719 nM | 177 nM | 198 nM | – | – | – |
| GGUCCACGAGGAUAUCGAUUAUAGUACAUGAGGAUCACCCAUGUUGUCCAGGUUUCGAUUCGAGAAGGCGUGGGUU [LRO-Ex5-02] (puzzle: Exclusion 5) | – | – | – | – | 51.8 nM | – |
| AGACGUCAAGUCAGGAUAUAGAGGCAAGUCCACCGCUAGAAGGGACAUGAGGAUCACCCAUGUAGGGUUUAGCU [Zainsoed] (puzzle: Brourd's mod of Exclusion 4) | – | – | – | 101 nM | 157 nM | 135 nM |
| UUUAAUUUUUUUUUUUUACAAGCUUUUUGCUCGUCUUAUACAUGAGGAUCACCCAUGUAAGUGGAGGAUAAAUUAUC [JMF 33] (puzzle: Sensor v3, turn-off variant 2) | – | – | – | 24.7 nM | 23.8 nM | 24.1 nM |
| UGUGUGUGACAGGAUAUGCAGGUAAUGAGACGGGUAGAAGGGUCUACAUGAGGAUCACCCAUGUGGCCGGUUGG [Ex6 #62] (Eterna round: R97, puzzle: Exclusion 6) | 17.7 nM | – | 16.4 nM | – | – | – |

| Sequence | apparent KD of MS2 coat protein (input ligand: FMN 200 uM) | apparent KD of MS2 coat protein [1] | apparent KD of MS2 coat protein (input ligand: none) | apparent KD of MS2 coat protein [2] | apparent KD of MS2 coat protein [3] | apparent KD of MS2 coat protein [4] |
| --- | --- | --- | --- | --- | --- | --- |
| AUAGAGUCAGGAUAUACAGGUGGAGGAGAGCAGCAUAAGGAGUAGAAGGGACAUGAGGAUCACCCAUGUAAGUG [JR_Exclu4_Sub059] (puzzle: Exclusion 4) | – | – | – | 45.9 nM | 63.9 nM | 56.9 nM |
| CUUUUGUGAGGAUAUCAGUAGUAAAUAAAUAAUAUUACUACUGAGAAGGCACAUGAGGAUCACCCAUGUUCCUC [salish99_ex3_r3_083] (puzzle: Exclusion 4) | – | – | – | – | 42.3 nM | – |
| CAUGAUUGACGAGGAUAUUGUUCUACAUCACGACGAGAAGGCGUCUGUCACAUGAGGAUCACCCAUGUGAGACUGGUGAAUGAG [Ex NG1 #81] (Eterna round: R96, puzzle: Exclusion NG 1) | 36.4 nM | 17.1 nM | 20.4 nM | – | – | – |
| GAGUACUGAGGAUAUACAUGAGGAUCACCCAUGUGUUCCAACUAGGAAUCUAGAAUGUGUAGAAGGCAGUGCUG [salish99_ex3_r4_703] (Eterna round: R97, puzzle: Exclusion 3) | 298 nM | – | 262 nM | – | – | – |
| UGCAGACGAGGAUAUGAUUAAUAAUACAUGAGGAUCACCCAUGUAAUACUGAUCUAUGGAUCAGAAGGUGUCUGCU [E5/6-B3] (Eterna round: R97, puzzle: Exclusion 5) | 20.8 nM | – | 24.1 nM | – | – | – |
| UUAAUACAUGUAGGAUAUGCGUGGCGAAGCUAUGCAGAAGGACAUGAGGAUCACCCAUGUUCUUGCGUCCGCGUACGGAUGCAA [JL Eng1 1.21 mod 4] (Eterna round: R96, puzzle: Exclusion NG 1) | 29.4 nM | 10.2 nM | 15.2 nM | – | – | – |
| GUCUUGAUAGGAUAUACAUGAGGAUCACCCAUGUCCCACCCGUUACCUCUGACCCUAUGUAGAAGGAUCGUUUG [Exy#17] (Eterna round: R97, puzzle: Exclusion 3) | 34.3 nM | – | 48.3 nM | – | – | – |
| GACCAGCUAGGAUAUACAUGAGGAUCACCCAUGUGCAUUAAAGGGCUGGGUGACCCGCGUAGAAGGAGCGGGUC [Ustieded] (Eterna round: R97, puzzle: Exclusion 3) | 13.9 nM | – | 14.5 nM | – | – | – |
| UACAUGAGGAUCACCCAUGUUUUGUCGUGUAUGGUAUUUAUCUAGGAUAUCAGGUUAUUUAUUUAUGAGAAGGAGAAUAUUAAU [JMF's solution 25] (Eterna round: R96, puzzle: Exclusion NG 3) | 33.3 nM | 37.5 nM | 34.3 nM | – | – | – |
| UUUGAUUGCACAGGAUAUUGUCAUUUGAGUUGUCAAGAAGGGUGUACAUGAGGAUCACCCAUGUUAUGCUUUCCUCGCUCACUU [JR_ExcNG1_Sub009] (Eterna round: R96, puzzle: Exclusion NG 1) | 15.5 nM | 12.8 nM | 20 nM | – | – | – |
| AAAAGUUGGUAAGGAUAUCCCACAUUAUUCUGACCCGUGCAAGCUACAUGAGGAUCACCCAUGUGGGAGAAGGUGCGUUAAAGA [Zatiisor] (Eterna round: R96, puzzle: Exclusion NG 2) | 209 nM | 55.1 nM | 78.8 nM | – | – | – |
| UCUGGAGCAGGAUAUAUAUGACGUGCUUCGGCACGGUGAGUACAUGAGGAUCACCCAUGUAGAAGGGCUCCAGA [Exclusion 2 (Mod of Brourd's E2/9-D2)] (Eterna round: R97, puzzle: Exclusion 2) | 81.8 nM | – | 20.3 nM | – | – | – |
| UUUAUGUCAGGAUAUGAUUAGAUCUACUUUUGUAGAUCUAAUCAGAAGGGACAUGAGGAUCACCCAUGUAGUUU [Ex4 - 3 - 14] (puzzle: Exclusion 4) | – | – | – | – | 116 nM | – |
| UUCUUUAUACGAGGAUAUCAUACAUGAGGAUCACCCAUGUGGCUGGGUCUGUUUUUAUAUAAUAUUGAGAAGGCGUUUUGCUAU [JR_ExcNG2_Sub072] (Eterna round: R96, puzzle: Exclusion NG 2) | 223 nM | 70.5 nM | 80.9 nM | – | – | – |
| UAUUAAGCAAGCAGAUCCCACAUGAGGAUCACCCAUGUGCUCGUCUUAUAAGGUACUGUGACGAAAGUCACGGUACC [Sensor 3, v1 - 91 v12] (Eterna round: R97, puzzle: Sensor, turn-off variant 1) | 126 nM | – | 156 nM | – | – | – |
